Test results: patent US6890738

Biological target: prolactin receptor on Nb2 T lymphoma cells (rat) (UniProt P05710)
Assay: cell-based or functional assay

UniProt P05710, sequence (P05710 20-610): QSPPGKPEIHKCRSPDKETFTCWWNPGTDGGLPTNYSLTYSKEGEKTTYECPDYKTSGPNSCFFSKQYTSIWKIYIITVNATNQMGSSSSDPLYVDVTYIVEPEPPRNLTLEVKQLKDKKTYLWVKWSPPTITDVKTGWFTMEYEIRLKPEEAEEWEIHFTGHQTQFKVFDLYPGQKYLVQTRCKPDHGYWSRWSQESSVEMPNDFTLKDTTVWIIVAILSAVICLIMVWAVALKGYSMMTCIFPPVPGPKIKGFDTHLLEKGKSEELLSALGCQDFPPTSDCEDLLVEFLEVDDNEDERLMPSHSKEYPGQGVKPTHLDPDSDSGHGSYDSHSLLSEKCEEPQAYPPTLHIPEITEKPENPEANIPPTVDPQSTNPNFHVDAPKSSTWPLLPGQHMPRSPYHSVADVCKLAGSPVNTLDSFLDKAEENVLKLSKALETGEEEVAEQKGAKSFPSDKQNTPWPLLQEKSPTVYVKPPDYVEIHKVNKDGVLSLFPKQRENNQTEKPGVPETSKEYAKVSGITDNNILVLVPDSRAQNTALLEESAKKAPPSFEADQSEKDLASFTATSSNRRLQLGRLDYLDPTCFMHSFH

inhibition of the Nb2 cell growth response to 400 pg/ml wild-type PRL by 200 pg/ml aspartate mutant (MTS assay) [%]	reduction of the Nb2 cell growth response to 800 pg/ml wild-type PRL by 200 pg/ml glutamate mutant (MTS assay) (fraction of growth response)	Substance
75	–	human prolactin aspartate mutant (serine 179 substituted with aspartate) (from UniProt P01236 29-227) (ligand)
–	0.5	human prolactin glutamate mutant (serine 179 substituted with glutamate) (from UniProt P01236 29-227) (ligand)
